Read-outs that look alike come from different tables or passages of the source.
T1: monkey CEA expressed on CHO cell surface (cynomolgus monkey)
T1 construct: also called cynoCEA-CHO; monkey CEA proteins on the cell surface
T1 chain: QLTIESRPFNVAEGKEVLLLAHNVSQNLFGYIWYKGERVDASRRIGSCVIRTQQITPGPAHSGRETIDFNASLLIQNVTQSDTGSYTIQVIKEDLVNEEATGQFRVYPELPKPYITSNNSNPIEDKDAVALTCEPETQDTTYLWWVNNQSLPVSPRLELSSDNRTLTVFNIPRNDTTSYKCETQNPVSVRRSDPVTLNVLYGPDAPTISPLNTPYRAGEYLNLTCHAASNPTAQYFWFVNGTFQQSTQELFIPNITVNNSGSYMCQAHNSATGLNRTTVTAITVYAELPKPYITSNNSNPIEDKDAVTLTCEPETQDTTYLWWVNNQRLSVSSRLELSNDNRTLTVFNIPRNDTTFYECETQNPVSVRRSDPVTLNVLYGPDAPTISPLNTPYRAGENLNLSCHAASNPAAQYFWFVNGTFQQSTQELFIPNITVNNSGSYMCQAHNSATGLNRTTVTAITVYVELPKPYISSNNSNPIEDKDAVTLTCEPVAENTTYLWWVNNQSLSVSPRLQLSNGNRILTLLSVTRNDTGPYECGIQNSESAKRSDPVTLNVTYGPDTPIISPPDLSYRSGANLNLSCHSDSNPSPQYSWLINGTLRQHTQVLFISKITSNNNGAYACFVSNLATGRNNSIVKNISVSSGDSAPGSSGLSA

T2: human soluble CEA (human, UniProt P06731 35-685, limits assumed)
T2 construct: also called sCEA
T2 sequence (looked up): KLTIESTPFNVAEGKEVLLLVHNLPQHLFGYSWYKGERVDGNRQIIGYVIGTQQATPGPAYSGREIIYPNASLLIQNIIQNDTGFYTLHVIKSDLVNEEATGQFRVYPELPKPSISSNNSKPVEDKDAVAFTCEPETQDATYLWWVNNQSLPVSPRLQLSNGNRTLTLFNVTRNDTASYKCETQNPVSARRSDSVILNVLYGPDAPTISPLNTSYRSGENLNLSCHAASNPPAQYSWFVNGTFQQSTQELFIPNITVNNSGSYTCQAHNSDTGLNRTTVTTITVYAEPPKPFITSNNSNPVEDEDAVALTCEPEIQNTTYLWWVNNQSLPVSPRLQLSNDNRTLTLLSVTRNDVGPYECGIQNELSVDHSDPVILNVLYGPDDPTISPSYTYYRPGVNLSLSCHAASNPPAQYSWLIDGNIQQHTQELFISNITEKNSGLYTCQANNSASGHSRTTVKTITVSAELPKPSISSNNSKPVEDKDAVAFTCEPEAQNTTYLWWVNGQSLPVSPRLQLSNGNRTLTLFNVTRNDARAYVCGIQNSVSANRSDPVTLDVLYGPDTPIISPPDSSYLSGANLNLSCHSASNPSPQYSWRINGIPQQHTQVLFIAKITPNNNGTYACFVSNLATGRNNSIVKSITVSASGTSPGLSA

T3: human CEA protein on the cell surface (human, UniProt P06731 35-685)
T3 construct: whole, on cells; also called CEACAM-5; CD66e
T3 sequence (looked up): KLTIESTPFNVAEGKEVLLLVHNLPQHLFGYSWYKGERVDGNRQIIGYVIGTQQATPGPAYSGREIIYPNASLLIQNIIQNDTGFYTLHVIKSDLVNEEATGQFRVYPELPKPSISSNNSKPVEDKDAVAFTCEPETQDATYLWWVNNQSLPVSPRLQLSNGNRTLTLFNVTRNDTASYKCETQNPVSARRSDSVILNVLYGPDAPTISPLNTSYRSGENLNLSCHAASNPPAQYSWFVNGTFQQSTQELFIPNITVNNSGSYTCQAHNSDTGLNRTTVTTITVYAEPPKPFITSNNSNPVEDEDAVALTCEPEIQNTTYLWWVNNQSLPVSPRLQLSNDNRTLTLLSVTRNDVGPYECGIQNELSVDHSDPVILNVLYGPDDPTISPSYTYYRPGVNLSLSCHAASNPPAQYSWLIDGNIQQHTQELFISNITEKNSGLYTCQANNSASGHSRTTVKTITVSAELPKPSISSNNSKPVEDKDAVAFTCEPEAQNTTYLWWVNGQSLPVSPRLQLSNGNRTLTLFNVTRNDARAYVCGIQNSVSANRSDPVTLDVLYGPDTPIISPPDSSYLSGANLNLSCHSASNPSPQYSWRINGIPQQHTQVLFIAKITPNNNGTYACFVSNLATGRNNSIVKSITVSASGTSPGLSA

T4: human CEACAM1 expressed on CHO cell surface (human, UniProt P13688 35-526)
T4 construct: also called CEACAM1-CHO
T4 sequence: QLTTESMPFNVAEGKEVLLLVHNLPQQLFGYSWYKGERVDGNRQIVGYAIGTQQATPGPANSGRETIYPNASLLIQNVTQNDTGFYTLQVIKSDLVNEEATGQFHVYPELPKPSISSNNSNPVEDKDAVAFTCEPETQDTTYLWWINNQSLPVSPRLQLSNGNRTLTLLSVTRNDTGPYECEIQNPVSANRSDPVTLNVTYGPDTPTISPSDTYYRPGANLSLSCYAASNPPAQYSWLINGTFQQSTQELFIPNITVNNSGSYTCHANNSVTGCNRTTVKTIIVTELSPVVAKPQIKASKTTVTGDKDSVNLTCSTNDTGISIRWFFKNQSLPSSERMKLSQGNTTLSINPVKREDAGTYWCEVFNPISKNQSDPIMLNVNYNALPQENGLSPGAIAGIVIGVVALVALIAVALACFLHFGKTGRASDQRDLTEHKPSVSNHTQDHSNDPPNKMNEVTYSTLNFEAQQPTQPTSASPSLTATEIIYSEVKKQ


How the values were obtained:
[1] = molecular target: T1, monkey CEA expressed on CHO cell surface; assay: FACS, cynoCEA-CHO cells
[2] = molecular target: T2, human soluble CEA; assay: SPR (Biacore T200), antibody captured, soluble CEA as analyte, 1:1 Langmuir
Protocol: The affinity of a test humanized antibody for human and monkey soluble CEA was determined using a Biacore (GE, T200) instrument. According to the method in the instructions of a human antibody capture kit (GE, Cat #BR-1008-39), the human antibody capture antibody was covalently conjugated to a biosensor chip CM5 (GE, Cat #BR-1005-30) of the Biacore instrument to affinity-capture a certain amount of the test antibody, then a series of concentration gradients of soluble CEA antigens were allow to flow through the surface of the chip, and reaction signals were detected in real time using Biacore, so that an association and dissociation curve was obtained. After each cycle of dissociation was completed, the biochip was washed and regenerated with a regeneration solution prepared in the human antibody capture kit. The data obtained from the experiment were fitted with the (1:1) Langmuir model using BIAevaluation version 4.1 software to obtain affinity values.

[3] = molecular target: T3, human CEA protein on the cell surface; assay: FACS, MKN45 cells
[4] = molecular target: T4, human CEACAM1 expressed on CHO cell …; assay: FACS, CEACAM1-CHO cells
[5] = molecular target: T1, monkey CEA expressed on CHO cell surface; assay: FACS, cynoCEA-CHO cells
[6] = molecular target: T4, human CEACAM1 expressed on CHO cell …; assay: FACS, CEACAM1-CHO cells; remark: listed apart in the source
[7] = molecular target: T3, human CEA protein on the cell surface; assay: FACS, MKN45 cells; remark: listed apart in the source

EC50 [1]	Kd [2]	EC50 [3]	binding result [4]	binding result [1]	EC50 [5]	binding result [6]	EC50 [7]	Binder
1.71 nM	144 nM	2.93 nM	no binding	–	–	–	–	Hu63-13 (antibody, human IgG1, kappa, V domains shown, Humanized IgG1/kappa; h63VH5 + h63VL1) VH: EVQLVQSGAEVKKPGASVKVSCKASGYTFTDFYMNWVRQAPGQGLEWMGDIFPKSGNTDYNRKFKDRVTMTRDTSTSTVYMELSSLRSEDTAVYYCARSGYGNYVFDYWGQGTLVTVSS VL: DIQMTQSPSSLSASVGDRVTITCRTSQDINIYLNWYQQKPGKAPKLLIYYRSGLLSGVPSRFSGSGSGTDFTLTISSLQPEDFATYYCQQGNTLPPTFGGGTKVEIKR
–	5.93 nM	2.45 nM	no binding	no binding	–	–	–	Labetuzumab (antibody, human IgG1, kappa, V domains shown, Positive control antibody; also called Lmab; antibody in Lmab-CL2A-SN38) VH: EVQLVESGGGVVQPGRSLRLSCSASGFDFTTYWMSWVRQAPGKGLEWIGEIHPDSSTINYAPSLKDRFTISRDNAKNTLFLQMDSLRPEDTGVYFCASLYFGFPWFAYWGQGTPVTVSS VL: DIQLTQSPSSLSASVGDRVTITCKASQDVGTSVAWYQQKPGKAPKLLIYWTSTRHTGVPSRFSGSGSGTDFTFTISSLQPEDIATYYCQQYSLYRSFGQGTKVEIKR
–	31.1 nM	1.79 nM	no binding	–	–	–	–	Hu103-32 (antibody, human IgG1, lambda, V domains shown, Humanized IgG1/lambda; h103VH4 + h103VL8) VH: EVQLVQSGSELKKPGASVKVSCKASGYTFTTYGVIWVRQAPGQGLEWMGWINTYSGVPTYASDFKGRFVFSLDTSVSTAYLQISSLKAEDTAVYYCARKKTLTTVTPWFAYWGQGTLVTVSS VL: ELVLTQSPSASASLGASVKLTCTLSSQHSTYTIEWYQQQPEKGPRYVMELKKDGSHSTGEGIPDRFSGSSSGAERYLTISSLQSEDEADYYCGVGNTIKEQFVYVFGGGTKLTVLG
2.7 nM	1430 nM	4.19 nM	no binding	–	–	–	–	Hu47-14 (antibody, human IgG1, kappa, V domains shown, Humanized IgG1/kappa; h47VH4 + h47VL2) VH: EVQLVQSGSELKKPGASVKVSCKASGYTFTTYGMSWVKQAPGQGLKWMGWINTYSGVPTYASDFKGRFVFSLDTSVSTAYLQISSLKAEDTAVYYCARRGNYGRWDFDVWGQGTTVTVSS VL: EIVLTQSPDFQSVTPKEKVTITCSVSSTISSSNLHWYQQKPDQSPKPLIYGTSNLASGVPSRFSGSGSGTDYTLTINSLEAEDAATYYCQQWSIYPLTFGQGTKLEIKR
2.89 nM	228 nM	–	no binding	–	–	–	–	Hu67-14 (antibody, human IgG1, kappa, V domains shown, Humanized IgG1/kappa; h67VH3 + h67VL4) VH: EVQLVQSGAEVKKPGESLKISCKGSGYSFTDYHMNWVKQMPGKGLEWMGDINPDIGGTSYNQNFKGKVTISVDKSISTAYLQWSSLKASDTAMYYCARWDFDSFANWGQGTLVTVSS VL: DIQMTQSPSSLSASVGDRVTITCRASESVSIIGTNLIHWYQQKPGKAPKLLIYHASNLETGVPSRFSGSGSGTDFTLTISSLQPEDFATYYCLQSRKIPYTFGGGTKVEIKR
–	–	–	–	–	6 nM	no binding	1.9 nM	mAb67 (antibody, V domains shown, Murine hybridoma antibody) VH: EVQLQQSGPELVKPGASVKIYCKASGYTFTDYHMNWVKQSHGKSLEWIGDINPDIGGTSYNQNFKGKATLTVDKSSSTAYMELRSLTSEDSAVYYCSRWDFDSFANWGQGTLVTVSA VL: DIVMTQSPASLAMSLGKRATISCRASESVSIIGTNLIHWYQQKPGQPPKLLIYHASNLETGVPARFSGSGSGADFTLTIDPVEGDDVALYYCLQSRKIPYTFGGGTKMEIK
–	–	–	–	–	1.66 nM	no binding	2.1 nM	mAb47 (antibody, V domains shown, Murine hybridoma antibody) VH: QIQLVQSGPELKKPGETVKISCKASGYTFTTYGMSWVKQAPGKGLKWMGWINTYSGVPTYADDFKGRFAFSLETSASTAYLQINNLKNEDTATYFCARRGNYGRWDFDVWGTGTTVTVSS VL: EIVLTQSPALMAASPGEKVTITCSVSSTISSSNLHWYQQKSETSPKPWIYGTSNLASGVPVRFSGSGSGTSYSLTISSMEAEDAATYYCQQWSIYPLTFGAGTKLELK

From patent publication US20230055408A1 (JIANGSU HENGRUI MEDICINE, published 2023)
